The assay addresses GST-VPS29C (human, UniProt F8VXU5 1-214). The experiment in a line: ITC; 300 μM peptide titrated into 10 μM GST-tagged VPS29C, 25 °C, 50 mM Tris-HCl pH 7.5, 200 mM NaCl, 2 mM β-mercaptoethanol; single-site model. The settings on record: both partners purified. In general terms: ITC needs no label: the signal is the heat of the interaction.

Usually Kd stands for the equilibrium constant for the complex coming apart.

B1: VPS35L 16 to 38 (peptide)
peptide: EFASCRLEAVPLEFGDYHPLKPI
notes: also called VPS35L Pro-Leu motif containing peptide
As for B1, the equilibrium dissociation constant (Kd) was greater than 100 µM.

The values above are taken from article PMC12260524, “Identification of a VPS29 isoform with restricted association to Retriever and Retromer accessory proteins through autoinhibition” (Proceedings of the National Academy of Sciences of the …, 2025).
